Laboratory results taken from publication PMC11368712.

What was measured:
[1] = target: AgaBb1180 (Bifidobacterium bifidum JCM 1254); experiment: SEC
[2] = target: AgaBb1191 (α-galactosidase from Bifidobacterium bifidum JCM 1254, residues 23-1191, without the N-terminal T7-tag) (Bifidobacterium bifidum JCM 1254); experiment: SEC

Substance	stoichiometry N [1]	stoichiometry N [2]
AgaBb1180 (domain or fragment)	2	–
AgaBb1191 (α-galactosidase from Bifidobacterium bifidum JCM 1254, residues 23-1191, without the N-terminal T7-tag) (domain or fragment)	–	2
